Reference: patent US20220306736A1 (Y BIOLOGICS, published 2022)

These binders were tested against T1, hVSIG4(S)-hFc (human) (assay: western blot, 100 ng hVSIG4 short-hFc (FIG. 11B)).
T1 construct: also called VGIG4(S)-Fc; hVSIG4 short-hFc (S)
Description: (A) Binding to hVSIG4(S) and hVSIG4(L) was assayed by ELISA with the original scFv versions of the 11 human anti-VSIG4 antibodies. (B) Binding to hVSIG4(S) and hVSIG4(L) was assayed by western blotting with the 11 full-length human anti-VSIG4 antibodies. NRH: Non-reduced, heated; RH: Reduced, heated.
In each case, 100 ng of hVSIG4 long-hFc (L) and hVSIG4 short-hFc (S) were probed with the specific anti-VSIG4 antibody.

binding result | Binder
binds | SA1975 (antibody, V domains shown) VH: QVQLVESGAEIKKPGASMNVSCKASGYIFTNYYIHWVRQAPGQGLEWIGIIDPSGGSTTYAQKFQHRVTMTSDTSTSTVYMELIGLGSEDTAVYYCARDYWGSLDYWGQGTLVTVSS VL: NFMLTQPHSVSESPGKTVTISCTRSSGSIASNYVQWYQQRPGSAPTIVIYENYLRPSEVPDRFSGSIDSSSNSASLTISGLKTEDEGDYYCQSYDSRNRNYVFGTGTKVTVL
binds | SA2291 (antibody, V domains shown) VH: QMQLVESGGGLVKPGGSLRLSCAASGFTFSDHYMSWIRQAPGKGLEWVSSISSGGGTIYYADSVKGRFTISRDNAKNSLYLQMNSLRAEDTAVYYCARREYDSDGHYYFDYWGQGILVTVSS VL: SYELTQPPSVLVSPGQTARITCSGDALPKQYAYWYQQKPGQAPVLVMYKDNVRPSGIPERFSGSSSGTTVTLTISRVQAEDEADYYCQSVDSSDTSVVFGGGTKLTVL
binds | SA1956 (antibody, V domains shown) VH: QVTLKESGPTLVKPTQTLTLTCTFSGFSLTTSGVAVAWIRQPPGKALEWLALIYWDGDERYSSSLKNRLTITKDTSKSQVVLTMTNMDPVDTATYYCARIRGYYDWGSYYSYGMDVWGQGTTVTVSS VL: SYELTQPLSVSVALGQTARITCGGNNIGSKNVHWYQQKPGQAPVLVIYRDSNRPSGIPERFSGSNSGNTATLTISRAQAGDEADYYCQVWDSSTHVVFGGGTKLTVL
binds | SA1957 (antibody, V domains shown) VH: QVTLRESGPTLVKPTQTLTLTCTFSGFSFNTPGEGVTWIRQPPGKALEWLALIYWDDEKHYNPSLNGRLTITKDTSKSQVVLTMTNMDPVDTATYYCARIRGYYDWGSYYSYGMDVWGQGTTITVSS VL: SYELTQPLSVSVALGQTARITCGGNNIGSKNVHWYQQKPGQAPVLVIYRDSNRPSGIPERFSGSNSGDTATLTISGAQAGDEADYYCQVWDSSTHVVFGGGTKLTVL
binds | SA2390 (antibody, V domains shown) VH: QVQLVESGGGLVQPGRSLRLSCAASGFTFDDYAMHWVRQAPGKGLEWISGISWNSGNIVYADSVKGRFTISRDNAKNSLYLQMNSLRAEDTAVYYCARETALAFDMWGPGTMVTVSS VL: DIQMTQSPSSVSASVGDRVTITCRASQGISYWLAWYQQKPGIAPKLLIFASSRLHSGVPSRFNGSGSGTDFTLTINSLQPEDFATYYCLQATSFPYTFGQGTKLEIK
binds | SA2283 (antibody, V domains shown) VH: QVQLVESGGGLVKPGGSLRLSCAASGFTFSDYYMSWIRQAPGKGLEWVSYISSSGSTIYYADSVKGRFTISRDNAKNSLYLQMNSLRAEDTAVYYCARRYSAYETGYFDFWGQGTLVTVSS VL: DIQMTQSPSSLSASVGDRVTITCRASQGISTYLNWYQQKPGKAPKLLIYSTSTLQTGVPSRFSGGGSGTDFTLTISSLQPEDFATYYCQQSYSAPPTFGPGTKVEIK

Further lines, the binder ahead of its results:

Binder | binding result
SA2287 (antibody, V domains shown) VH: QVQLVESGGGVVQPGRSLRLSCAASGFTFSSRGMHWVRQAPGKGLEWVALIWYHGSDDSYADSVKGRFTISRDNSKNMVYLQMNSLRAEDTAVYYCANLGATDGFDIWGQGTVVTVSS VL: QSALTQPASVSGSPGQSITISCTGTSSDVSAYNYVSWYQQHPGKAPKLMIYGVSDRPSGVSFRFSGSKSGNTASLTISGLQAEDEAYYYCNSYTTSNTWVFGGGTKLTVL | binds
SA2290 (antibody, V domains shown) VH: QMQLVESGAEVKKPGASVKVSCKASGYTFTSYGISWVRQAPGQGLEWMGWISAYNGNTNYAQKLQGRVTMTTDTSTSTAYMELRSLRSEDTAVYYCARDYWGSLDHWGQGALVTVSS VL: NFMLTQPHSVSGSPGKTVTISCTRSSGSIDINYVQWYQQRPGSAPTIIIYEDSQRTSGVPDRFSGSIDRSSNSASLTISGLKTEDEGDYYCQSYDSRNRNYVFGTGTKVTVL | binds
SA2455 (antibody, V domains shown) VH: QMQLVESGGGLVKPGGSLRLSCAASGFTFSDYYMSWIRQAPGKGLEWVSYISSSGSTIYYADSVKGRFTISRDNAKNSLYLQMNSLRAEDTAVYYCARPGYYYGLDVWGQGTTVTVSS VL: DIQMTQSPSTLSASVGDRVTITCRASQSISSWLAWYQQKPGIAPKLLIYQASILDSGVPSRFSGSGSGTEFTLTISSLQPDDFATYYCQQYSSLWTFGPGTKVDIK | binds
SA2285 (antibody, V domains shown) VH: QVTLRESGPTLVKPTQTLTLTCTFRGFSLNTPGMGVAWIRQPPGKALEWLGLVFWDDDKTYRPSLRNRLTITKETSKSQVVLTMTNMDPVDTATYYCARIRGYYDWGSYYSYGMDVWGQGTTVTVSS VL: SYELTQPLSVSVALGQTARITCGGNNIGSKNVHWYQQKPGQAPVLVIYRDSNRPSGIPERFSGSNSGNTATLTISGVEAGDEADYYCQVWDSNSDQYVFGTGSKVTVL | binds
SA2386 (antibody, V domains shown) VH: QVQLVESGGGLVKPGGSLRLSCAASGSTFRVAWVNWVRQAPGKGLEWVGRIKSNSDGGTTDYATPMKDRFIISRDDSKNTVFLQMNSLRAEDTAVYYCARHGDANAYYYGMDVWGQGTKVTVSS VL: QSALTQPASVSGSPGQSITISCTGTSSDVGGYNYISWYQQHPGKAPRLLIYDVSDRPSGVSNRFSGSKSANTASLTISGLQAEDEADYYCSSYASSSTLYVFGTGTKVTVL | binds
